Results as given in the RNAGym collection of RNA variant scans (doi:10.1073/pnas.2313332121).

B1: TPR t1 (parent)
chain: GACCAAUCUGCCCUCAGAGCUCGAGAACAUCUUCGGAUGCAGAGGAGGCAGGCUUCGGUGGCGCGAUAGCGCCAACGUCCUCAACCUCCAAUGCAUCCCACCACAUGAUGAUGCCUGAAGAGCCUUGGUUUUUUG

Variants of: B1
Test: polymerase ribozyme fitness, log enrichment relative to wild type (log ratio); higher = more active; in vitro selection for triplet polymerase activity
Outline: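 Streptavidin-bead capture of gel-excised extended constructs, followed by RT-PCR, closed a single triplicate in vitro selection round. That round began by annealing PCR-built, transcribed mutant libraries of each subunit of a heterodimeric triplet polymerase ribozyme with a biotinylated primer, the partner subunit and triplets, then incubating them frozen at −7 °C. After Illumina sequencing of inputs and outputs, genotypes needed ≥10 input reads and ≥1 read per output. Fitness is the base-2 logarithm of genotype enrichment over wild-type enrichment, using inverse-variance-weighted replicate averages.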

| Variant | polymerase ribozyme fitness (log ratio) |
| --- | --- |
| U54A C70U C94A | -1.72 |
| G52U C56G C89U | -1.53 |
| G52C C123G | 0.381 |
| C53G C70U | -1.16 |
| C53G U78C C80U A91G U92C C124A | -5.02 |
| G52U C53A C73U | -1.08 |
| G52C C86A C114U G120U | -5.89 |
| U55G G58C C79A | -3.4 |
| C53A C80U U106A G135U | -3.96 |
| G52C U55C U78C C82U | -0.756 |
| C53U A91C U92A G122A | -4.02 |
| G52U G58A C79G C85A G107U G113A | -6.66 |
| U55G U132A | -0.283 |
| C53G C64U G127U | -1.02 |
| U54A A68G G71U C80G C102G G113U U125A | -6.12 |
| C53U C73G | -2.05 |
| G52A G113A | -1.37 |
| U55G G60U A103U | -5.31 |
| G52U G63A G120U | -1.08 |
| C56A A100G C102U U112C G127C | -2.2 |
| C56A C88U C124A U133C | 2.43 |
| G52C G57C C79G C86U C115U | -1.83 |
| U54C C72U C89U A111C | -0.0742 |
| C53A U112A | 0.632 |

| Variant | polymerase ribozyme fitness (log ratio) |
| --- | --- |
| C53U U78A A103U A121C U132C | -4.38 |
| C53U G77U U132A | -0.78 |
| U55G G61U C114U | -1.66 |
| U55G C62A C88G | -2.24 |
| C56A C72U G110A G122U | -2.87 |
| C53A C56A A90G C97A U132C | -3.46 |
| U55A C79G | -0.669 |
| G52U C72G C79A G110A C123A | -3.69 |
| C53G G58C C62A C85U G113A | -2.93 |
| C53U | -0.1 |
| C53A | 0.0557 |
| C53G | -0.355 |
| C53A G61C U116C | -5.85 |
| C56A A83U C85U C99U | -3.58 |
| C56A C89U C102U G113U | -6.7 |
| G52A G69A G93U C123U | -3.78 |
| G52C C70A G110C | -6.64 |
| C56A C88U C101U U106G C123A | -1.58 |
| G52U C64U U116C | -2.49 |
| C53A G113C | -2.28 |
| C53G G63C G93C C114A | -3.01 |
| C53A A68G | -2.61 |
| C53G A90G | 0.537 |
| C53G C89U | -0.681 |

| Variant | polymerase ribozyme fitness (log ratio) |
| --- | --- |
| C53G C70G C104U C114U G120U C123G C124A | -6.46 |
| C53U U112A | 0.78 |
| U54G A95C U133A | -1.48 |
| U54C U78G G117U | -3.85 |
| C53A C73A | -0.0116 |
| C53A G60A C94A G120A | 0.047 |
| U54C C86G U112G G120C | -1.16 |
| C53G C64A U112G C124A | -6.11 |
| U54G U55A G93C C115G | -5.45 |
| G52U C56A C99U | -4.58 |
| C53A A100G G113A G120C | -4.41 |
| C53G G110C | -4.65 |
| G52C A95G G120C U125A | -0.335 |
| C53G C114U | -2.03 |
| U55G C62G C123U | -0.0735 |
| C53G C72U | -1.04 |
| G52U G61C U130G | -1.58 |
| C53A A105U | -2.72 |
| C56A C64G | -5.92 |
| C53A A84U U125A | -1.27 |
| C53U C62U A111U A118U G135A | -3.23 |
| C56A A83U | -1.62 |
| G52A G120U | -0.416 |
| U55G A66U | -0.936 |

| Variant | polymerase ribozyme fitness (log ratio) |
| --- | --- |
| C53A C70U U78C C86G | -1.12 |
| C53G C56A G60A A111G | -0.505 |
| U55A G77U C115U U125A | -1.02 |
| U55C C56A A90G C94G G110C U116A A121G | -6.03 |
| C53U G60U | 0.63 |
| U54A C85U C97U | -1.5 |
| C53U A90G A95G | 0.749 |
| C56A C72G | -0.848 |
| G52C A83G | -1.31 |
| C53U G71A C73A G77C C80U | -6.09 |
| U55C C72G A83G U126A | -2.13 |
| U54G C80A C88A | -4.43 |
| U55G G69A C73A | -3.04 |
| U54C C115A G122A C123A U131A | -1.4 |
| C56A C99U | -2.82 |
| G52C | -0.632 |
| G52U | -0.82 |
| C53U C70U A74G G113C | -4.41 |
| C53A G71A | -0.89 |
| C53A G63A U78C G110U | -3.53 |
| C53U G63C | -2.11 |
| C53G C62A C70U U78G | -2.63 |
| G52A G69U G71U C102A | -4.53 |
| C53U C72U C79A C85U C88U | -2.53 |

| Variant | polymerase ribozyme fitness (log ratio) |
| --- | --- |
| C53A U55A C70U | -0.287 |
| C53G G107U C123G | -2.73 |
| U55C C82A C124G | 1.37 |
| C53U G69U C73U | 0.0642 |
| C53A G135U | -0.659 |
| U54C C76U | -0.00868 |
| U55C U130G | -1.43 |
| G52C C72A C94U G128A | -2.33 |
| C53U C102U | -2.44 |
| U54G C62G | -5.55 |
| G52U C76G C97U | -2.35 |
| G52U G60A C104U C115G A121C | -4.03 |
| U55C C72A U78C C79U A121G | 2.46 |
| G52U U106A | -0.189 |
| C53U C99G A119G | -7.41 |
| C53U A91U C123A | -1.7 |
| C53U G63C C98G | -6.12 |
| C56A C80A U116G | -4.93 |
| G52C C85U G117C | -5.83 |
| C56A A119U | -1.36 |
| U54C U109A G120C | -5.52 |
| G52A U55A G61A C97U C101G U125G | -2.53 |
| U54G C101U U106A U116G | -3.87 |
| G52C G69U C97A | -2.26 |

| Variant | polymerase ribozyme fitness (log ratio) |
| --- | --- |
| C53U A121U | 0.893 |
| U55A U87A G122A | -0.825 |
| C53U U67G C124G | -7.17 |
| G52A C76U | -0.303 |
| U54G C85U U116G | -3.02 |
| C56A A66G A75G | -0.927 |
| C53G G107A | -5.6 |
| C53G G61A U106G G110C C124U | -6.24 |
| U54A C73U A121U U130A | 2.07 |
| G52U G57U G128C | -4.79 |
| U54A A119G | 0.648 |
| G52C G71U U132A | -0.43 |
| G52U G63U | -0.651 |
| U54G C56G C72A G93A | -4.53 |
| C53U C86G | -0.977 |
| U54A C88G C89U C115A | -1.42 |
| C53U G71A C101G U130A | -3.93 |
| G52A G61C | -4.29 |
| G52C G63A C102U C104A | -3.27 |
| C53G C64U G110U | -3.95 |
| C53G G61C | -1.1 |
| G52U G77U A90U A121U U130A | -0.805 |
| C53A G120C | 0.974 |
| U55G C70G A100C | -3.29 |

| Variant | polymerase ribozyme fitness (log ratio) |
| --- | --- |
| C53A U59C A105U | -2.61 |
| C53G G57U G61A | -0.189 |
| U54C C56A C64A C85G G117A | -7.73 |
| C53A G60U | -0.129 |
| C53A G60C | -2.24 |
| C53A C56U | -0.113 |
| C53A G71C C85A G117A U125G | -5.65 |
| C53U C94A U129C | -1.99 |
| U54A C56G G61A | -0.683 |
| U54A C94A | -1.16 |
| U55A A111U | -2.8 |
| U54C G61C | -2.14 |
| U54G G71U A74U G113C A121U | -7.2 |
| G52C C79G | -0.316 |
| U55G G93A G117U | -3.04 |
| C53G C56G C82G C85A C94G | -2.28 |
| C53U G69A A84C | -3.13 |
| G52A U55A A74U G120C C123A C124U G135A | -0.0228 |
| C53U G71A G93A | -1.43 |
| C53A G71A C85A G135U | -4.02 |
| C53U G57A G60C G61A C115U | -4.03 |
| C53U G60C U87A | -1.09 |
| G52A C72G | -0.491 |
